Results from the Human Domainome abundance scans (Beltran et al. 2025).
± gives the uncertainty stated by the source.

B1: Activity-dependent neuroprotector homeobox protein, residues 770 to 810; numbered along this chain, Q9H2P0 (parent)
chain: FLTKYFNKQPYPTRREIEKLAASLWLWKSDIASHFSNKRKK
B2: POU domain, class 6, transcription factor 2, residues 609 to 663; numbered along this chain, P78424 (parent)
chain: KRRTSFTPQALEILNAHFEKNTHPSGQEMTEIAEKLNYDREVVRVWFCNKRQALK

Variants of: B1
Experiment: abundance fitness (aPCA) (normalised: wild type 0, dead -1); higher = more abundant; growth selection in yeast, the domain comes from the species named
Details: Homo sapiens

Abundance fitness: each site, then its substitutions
W27: G 0.037 ± 0.064 | L -0.04 ± 0.05
P12: D 0.092 ± 0.098
K28: N -0.244 ± 0.076 | E -0.463 ± 0.085 | A 0.333 ± 0.048
K4: P -0.904 ± 0.2
F1: C -0.854 ± 0.15
E16: L -0.194 ± 0.06
I17: N -0.687 ± 0.14
E18: R 0.066 ± 0.05
T3: S 0.001 ± 0.054
N7: W -0.958 ± 0.21 | G -0.365 ± 0.067 | V -0.841 ± 0.11
H34: G -0.043 ± 0.055
S33: G -0.023 ± 0.051
K19: A -0.52 ± 0.07 | E -0.241 ± 0.11 | S -0.413 ± 0.067 | V -0.502 ± 0.082
Y11: G 0.293 ± 0.051
D30: W -0.01 ± 0.077 | K 0.071 ± 0.1 | H -0.124 ± 0.092
K38: W -0.242 ± 0.11
L2: N -0.555 ± 0.27 | W 0.044 ± 0.048 | F 0.098 ± 0.071 | P -0.532 ± 0.24
Q9: W -0.823 ± 0.38
R15: S -0.018 ± 0.053
L20: F 0.042 ± 0.06
S23: W -0.091 ± 0.14
L24: I 0.051 ± 0.099
I31: Y -0.189 ± 0.064
T13: R -0.048 ± 0.055 | W 0.221 ± 0.072
N37: I 0.028 ± 0.099 | T -0.077 ± 0.055
A22: S -0.117 ± 0.059 | V -0.344 ± 0.055 | T -0.087 ± 0.087
L26: F 0.069 ± 0.088 | E 0.127 ± 0.061
K41: M 0.082 ± 0.12
W25: M -0.009 ± 0.1 | S 0.134 ± 0.051
S29: V -0.302 ± 0.11 | L -0.145 ± 0.058
R14: F -0.392 ± 0.14 | M -0.028 ± 0.12

Variants of: B2
Experiment: as above
Details: Homo sapiens

Abundance fitness of substitutions, site by site:
D39: H -0.113 ± 0.062 | S -0.052 ± 0.053 | K -0.257 ± 0.11 | I -0.597 ± 0.079 | Q -0.152 ± 0.078 | R -0.131 ± 0.053 | T -0.002 ± 0.058 | V -0.418 ± 0.061 | C -0.093 ± 0.085 | W -0.54 ± 0.094 | Y -0.425 ± 0.075 | F -0.635 ± 0.068 | M -0.483 ± 0.13 | G -0.146 ± 0.059 | P 0.037 ± 0.058 | E -0.208 ± 0.092 | N -0.138 ± 0.073
V45: L 0.02 ± 0.099 | H -0.141 ± 0.17 | F -0.243 ± 0.12 | K -0.149 ± 0.15 | Y -0.653 ± 0.29 | G 0.03 ± 0.088 | P -0.706 ± 0.18 | I -0.068 ± 0.13 | E -0.194 ± 0.23 | D 0.094 ± 0.23 | Q -0.296 ± 0.18 | M 0.07 ± 0.48 | W -0.055 ± 0.14 | R 0.018 ± 0.098 | A -0.029 ± 0.2
L54: T -0.217 ± 0.22 | M -0.106 ± 0.19 | C -0.258 ± 0.36 | F -0.199 ± 0.12 | I -0.242 ± 0.25 | K -0.159 ± 0.16 | E -0.133 ± 0.13 | Y -0.417 ± 0.47 | A -0.002 ± 0.14 | P 0.042 ± 0.17 | V -0.101 ± 0.12 | R -0.103 ± 0.12 | Q -0.175 ± 0.34 | H -0.159 ± 0.22 | S -0.065 ± 0.1 | D -0.182 ± 0.31
K50: R 0.022 ± 0.071 | A -0.125 ± 0.097 | E -0.156 ± 0.14 | S -0.21 ± 0.088 | I -0.916 ± 0.19 | W -0.836 ± 0.15 | V -0.638 ± 0.077 | N -0.222 ± 0.27 | Y -1.01 ± 0.3 | G -0.491 ± 0.074 | L -0.834 ± 0.11 | M -0.184 ± 0.17 | C -0.662 ± 0.25 | F -1.15 ± 0.31 | D -0.946 ± 0.17 | H -0.444 ± 0.29 | T -0.201 ± 0.12 | P -1.19 ± 0.36
R44: K -0.195 ± 0.11 | P -0.421 ± 0.1 | N -0.195 ± 0.15 | V 0.034 ± 0.083 | C -0.076 ± 0.13 | W 0.037 ± 0.078 | I -0.152 ± 0.13 | Y 0.062 ± 0.13 | M -0.075 ± 0.093 | F -0.117 ± 0.1 | A -0.017 ± 0.082 | S -0.094 ± 0.074 | E 0.027 ± 0.1 | T 0.018 ± 0.1 | H -0.199 ± 0.14 | L -0.21 ± 0.067 | D -0.179 ± 0.12
R40: S -0.034 ± 0.069 | Y -0.087 ± 0.11 | D 0.186 ± 0.12 | G 0.069 ± 0.071 | K 0.001 ± 0.092 | L 0.061 ± 0.062 | P -0.003 ± 0.13 | E 0.017 ± 0.089 | I -0.029 ± 0.12 | T -0.011 ± 0.091 | Q -0.12 ± 0.12 | C -0.064 ± 0.1 | W -0.014 ± 0.089 | A 0.024 ± 0.084 | F 0.041 ± 0.088 | V -0.013 ± 0.073
K55: V -0.304 ± 0.5 | G -0.226 ± 0.42 | R 0.001 ± 0.31 | N -0.186 ± 0.27
V42: E 0.004 ± 0.073 | N -0.064 ± 0.18 | K 0.066 ± 0.11 | P 0.019 ± 0.15 | S 0.029 ± 0.074 | T 0.002 ± 0.12 | I -0.117 ± 0.13 | D -0.012 ± 0.1 | W -0.151 ± 0.08 | G -0.056 ± 0.062 | Y -0.099 ± 0.19 | L 0.061 ± 0.082 | R -0.176 ± 0.082 | Q -0.124 ± 0.14 | M 0.034 ± 0.094
F47: R -0.949 ± 0.06 | G -0.853 ± 0.068 | A -0.744 ± 0.072 | N -1.08 ± 0.19 | Q -0.807 ± 0.12 | C -0.843 ± 0.087 | W -0.168 ± 0.058 | T -0.763 ± 0.1 | S -0.81 ± 0.071 | I -0.782 ± 0.12 | E -0.89 ± 0.1 | K -0.722 ± 0.11 | D -0.762 ± 0.13 | M -0.686 ± 0.091 | Y -0.162 ± 0.1 | H -0.913 ± 0.16 | L -0.782 ± 0.069 | P -0.775 ± 0.1
W46: Y 0.032 ± 0.23 | H -0.53 ± 0.42 | G -0.707 ± 0.11 | F -0.405 ± 0.29 | C -0.997 ± 0.28 | Q -0.827 ± 0.43 | K -0.983 ± 0.43 | V -1.02 ± 0.13 | P -0.801 ± 0.26 | N -0.891 ± 0.23 | D -0.447 ± 0.26 | E -0.91 ± 0.21 | I -0.828 ± 0.41 | R -0.753 ± 0.1
E41: Y -0.321 ± 0.15 | V -0.496 ± 0.071 | I -0.504 ± 0.18 | K 0.021 ± 0.13 | P -0.879 ± 0.14 | D -0.104 ± 0.14 | L -0.617 ± 0.07 | F -0.743 ± 0.14 | Q -0.216 ± 0.099 | G -0.186 ± 0.064 | W -0.319 ± 0.078 | M -0.42 ± 0.12 | T -0.082 ± 0.093 | N -0.185 ± 0.23 | S -0.153 ± 0.064 | R -0.107 ± 0.067 | A -0.218 ± 0.066 | C -0.119 ± 0.12 | H -0.29 ± 0.2
N49: A -0.038 ± 0.14 | Q 0.03 ± 0.24 | G -0.13 ± 0.11 | L -0.292 ± 0.1 | V -0.138 ± 0.1 | E 0.177 ± 0.16 | S -0.061 ± 0.096 | R -0.157 ± 0.084 | H -0.18 ± 0.2 | K 0.008 ± 0.13 | W -0.339 ± 0.11 | P -0.683 ± 0.25 | D -0.152 ± 0.16 | M -0.177 ± 0.11 | Y -0.218 ± 0.14 | F -0.292 ± 0.19 | I -0.226 ± 0.27
Q52: L -0.005 ± 0.071 | S -0.175 ± 0.08 | D -0.119 ± 0.12 | W -0.244 ± 0.1 | T -0.059 ± 0.12 | P -0.218 ± 0.098 | H 0.022 ± 0.14 | F -0.171 ± 0.13 | K 0.018 ± 0.11 | Y -0.339 ± 0.15 | C -0.126 ± 0.15 | M -0.188 ± 0.12 | V -0.161 ± 0.094 | N 0.014 ± 0.17 | A -0.006 ± 0.1 | E 0.117 ± 0.18 | I 0.045 ± 0.14 | G -0.223 ± 0.1
Y38: R -0.024 ± 0.05 | K -0.133 ± 0.095 | L 0.006 ± 0.059 | I 0.027 ± 0.13 | S 0.034 ± 0.059 | W -0.071 ± 0.059 | T 0.072 ± 0.07 | Q 0.024 ± 0.073 | M 0.022 ± 0.062 | P -1.08 ± 0.14 | N -0.405 ± 0.17
C48: M 0.18 ± 0.39 | W 0.02 ± 0.37 | I -0.475 ± 0.36 | T -0.197 ± 0.44 | E 0.259 ± 0.22 | Q 0.279 ± 0.38 | R -0.057 ± 0.19 | F -0.5 ± 0.43 | Y -0.062 ± 0.17 | D -0.144 ± 0.37 | S 0.039 ± 0.16 | V 0.124 ± 0.36 | G -0.008 ± 0.12 | N 0.277 ± 0.43
V43: Q -1.04 ± 0.26 | I -0.218 ± 0.13 | H -1.04 ± 0.41 | E -0.762 ± 0.15 | C -0.24 ± 0.15 | L -0.201 ± 0.096 | Y -0.908 ± 0.33 | K -1.17 ± 0.24 | M -0.931 ± 0.18 | S -0.958 ± 0.13 | A -0.614 ± 0.099 | R -0.935 ± 0.11 | W -0.979 ± 0.14 | P -0.938 ± 0.22 | F -0.665 ± 0.24 | T -0.579 ± 0.1 | D -0.764 ± 0.31 | G -0.943 ± 0.091
A53: F -0.267 ± 0.16 | V -0.2 ± 0.13 | H 0.012 ± 0.24 | T -0.157 ± 0.13 | M 0.034 ± 0.19 | I -0.11 ± 0.14 | R -0.194 ± 0.096 | S 0.005 ± 0.099 | Y -0.018 ± 0.21 | N 0.046 ± 0.31 | Q 0.042 ± 0.13 | E -0.105 ± 0.27 | L -0.086 ± 0.098 | K -0.167 ± 0.27 | C -0.215 ± 0.12 | P -0.392 ± 0.12 | W -0.089 ± 0.14
R51: I -0.226 ± 0.17 | N -0.074 ± 0.19 | L 0.011 ± 0.091 | V -0.165 ± 0.094 | C -0.316 ± 0.15 | K -0.026 ± 0.14 | E -0.337 ± 0.15 | P -0.636 ± 0.15 | D -0.457 ± 0.21 | Q -0.031 ± 0.16 | W -0.295 ± 0.12 | Y -0.097 ± 0.13 | F -0.331 ± 0.14 | M -0.377 ± 0.2 | S -0.174 ± 0.098 | A -0.094 ± 0.11 | T -0.243 ± 0.16 | H -0.385 ± 0.18
